Results from US9700619B2, “Combination drug therapy for the treatment of solid tumors” (Duke University, priority 2011, dated 2017).

How the values were obtained:
[1] = tested on: skin; experiment: Dermapathology evaluation of cutaneous biopsies from study subjects; assay type: in vivo, human
Description: Dose escalation was complete with 17 subjects evaluable for DLT toxicity and 16 evaluable for efficacy (see Table 2). […] One non-treatment-related death was due to disease progression. […] Twelve subjects have available efficacy data; 4 subjects have not yet been restaged. Two subjects with refractory NSCLC achieved a complete response. Six additional subjects had stable disease as best response.

[2] = tested on: patients with advanced solid tumors; experiment: Phase I study of ganitumab plus everolimus: DLT, MTD/RPTD and adverse events (NCI Common Toxicity Criteria version 4.0); assay type: in vivo; settings: subjects on G+E, summary
Experimental: The maximum tolerated doses/recommended phase II dose for the doublet combination, ganitumab (G) plus everolimus (E) followed by an expanded cohort was evaluated to better understand the safety and tolerability profile of this drug combination.
The primary objective of this study was to determine the maximum tolerated dose (MTD) and Recommended Phase II Dose (RPTD) of G+E in patients with advanced solid tumors. Secondary objectives were to describe any toxicities associated with this regimen and to preliminarily describe clinical activity (progression-free survival (PFS)), overall survival (OS), partial response (PR), complete response (CR) or stable disease (SD)>6 months.
For dose escalation, eligible patients had advanced solid tumors with adequate organ function and no increased risk for class-related toxicities. G was given intravenously, and E was orally administered; cycle length was 28 days. Stage I was a dose escalation; cohort size: 3-6 patients; Stage II was an expansion at MTD with a cohort size of 20 patients.
An intermediate dose of E at 5 mg five times weekly was added to better maximize dose intensity. Dose limiting toxicity (DLT) was assessed in cycle 1.
AEs were graded according to the NCI Common Toxicity Criteria version 4.0. Efficacy was assessed every 2 cycles with computed tomography (CT) using Response Evaluation Criteria in Solid Tumors (RECIST 1.1) guidelines.

Substance: ganitumab
- Finding in the third cutaneous biopsy ([1]; interpreted as part of the skin toxicity to G): spongiotic dermatitis with mixed inflammatory infiltrate with abundant eosinophils
- Cutaneous biopsies revealing hypersensitivity reaction in the form of superficial perivascular dermatitis ([1]; mild perivascular lymphocytic infiltrate with eosinophils, subjects on G+E): 2 out of 3
- Skin toxicities [2]: consistent with hypersensitivity to Ganitumab
